The text below walks through data of article PMC7954794, “Protein context shapes the specificity of SH3 domain-mediated interactions in vivo” (Nature Communications, 2021).

Common to all, as to type: cell-based, Saccharomyces cerevisiae
The test system of one assay is Hua2. In words: Deep mutational scanning of Abp1 SH3, Abp1-Hua2 DHFR-PCA (DMS score). Conditions: for hua2sc (DMS score): Frequencies scaled to the synonymous mutation distribution (DMS score), Hua2; for HUA2_MTX2: frequencies normalized to the reference condition, Abp1-Hua2, MTX2. In a few lines: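 Each SH3 position is mutated to all possible codons within endogenous ABP1; the pooled strains are crossed to DHFR F[3]-tagged partners, diploids are enriched in NAT/HPH media, and two 72 h complementation selections at 30 °C follow, with Illumina counts of the locus yielding the score.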

For another assay, the system named is Lsb3. In words: Deep mutational scanning of Abp1 SH3, Abp1-Lsb3 DHFR-PCA (DMS score). Conditions: for lsb3sc (DMS score): Frequencies scaled to the synonymous mutation distribution (DMS score), Lsb3; for LSB3_MTX2: frequencies normalized to the reference condition, Abp1-Lsb3, MTX2. The protocol: Single site mutation libraries were generated by a PCR-based saturation mutagenesis method[50] as described below. The mutagenesis was carried out on the pUC19 plasmid containing the SH3 domain sequence of ABP1 flanked by its homology arms subsequently used in the CRISPR mediated genomic re-integration. We used oligos containing degenerate nucleotides (NNN) to carry out the mutagenesis at each codon of the domain sequence. In the first step of the two-step PCR procedure (short PCR step), an amplicon was generated with an oligo containing the degenerate codon which is positioned within the domain sequence, and another oligo lying outside Abp1 sequence in the plasmid. Short PCR step was carried out with the following settings: 5 min at 95 °C, 35 cycles: 20 s at 98 °C, 15 s at 60 °C, 30 s at 72 °C, and a final extension of 1 min at 72 °C. The amplicon generated in this step was used as a mega primer in the second step (long PCR step) to amplify the whole plasmid. Long PCR step was carried out with the following settings: 5 min at 95 °C, 22 cycles: 20 s at 98 °C, 15 s at 68 °C, 3 min 30 s at 72 °C, and a final extension of 5 min at 72 °C. The long PCR product was digested for 2 h at 37 °C with DpnI. The digestion product was then transformed into E. coli MC1061 competent cells. In order to obtain most of the 64 possible codons, we recovered ~1000 colonies from each plate to retrieve the plasmid single mutant libraries. Saturation mutagenesis was carried out in a codon-position-wise manner. Mutants at each position were stored separately. Library quality control was assessed by amplifying the purified plasmid DNA preparations by PCR followed by Illumina sequencing as described below. The genomic insertion of the mutant libraries (one library per amino acid position) was performed by targeting the stuffer sequence in the ABP1 SH3-deleted strain as described in the strain construction section. ABP1 SH3-deleted yeast competent cells were co-transformed with pCAS containing the stuffer-specific gRNA and PCR amplified ABP1 SH3 single position mutated libraries from the pUC19 preparations. As for the library generation, ~1000 colonies from each plate were retrieved. Glycerol stocks of yeast cells were kept for each position (58 different stocks corresponding to the 58 amino acid positions of Abp1 SH3). The stocks were also validated by Illumina sequencing (see below).
Liquid DHFR-PCA experiments were performed following the generation of the ABP1 SH3 single position mutated yeast strains and were performed in biological independent duplicates. An overnight culture was started in YPD + NAT by adding the same number of cells from each yeast mutant strain (master pool). Then, the master pool and Hua2-DHFR F[3] or Lsb3-DHFR F[3] preys strains were mixed in YPD (2:1) for mating and incubated for 8 h at 30 °C. Diploid cells were selected the first time by transferring the mixture in a YPD + NAT + HPH (OD 0.5) culture for 16 h at 30 °C. The next day, the first diploid selection was transferred in SC complete pH 6.0 + NAT + HPH at 0.5 OD and the culture was grown for 24 h at 30 °C. The validation of the yeast mutant libraries was done the next day with a fraction of the diploid cells (first DHFR-PCA experiment time point without PCA selection, reference condition S2) by amplifying ABP1 SH3 genomic sequence followed by Illumina sequencing as described in the section below. Following the selection, diploid cells OD was read using a TECAN Infinite F200 Pro, and dilutions to 0.1 OD in PCA selection media without agar in a 50 mL tube was done. Tubes were incubated at 30 °C for 72 h (second-time point of the DHFR-PCA experiment, first PCA selection). A fraction of the cells (5U OD) was collected for Illumina sequencing. The cells from the first PCA step were grown for a second PCA selection step using the same procedures. […]

The subject of a further assay is Hua2 and Lsb3. The assay can be described thus: Quadrant classification of Abp1 SH3 variants from DMS scores (Abp1-Hua2 and Abp1-Lsb3 DHFR-PCA). As to conditions: class by effect on Hua2 and Lsb3 PPIs (Dest. both / Dest. Hua2 / Dest. Lsb3 / Neutral).
The next assay concerns Sla1-GFP foci. The assay can be described thus: Live imaging of endocytosis, Sla1-GFP foci tracking (Fig. 4E-H, S5E-I). Conditions: for mean effective distance towards centroid: n 3286. Here is the method: Overnight cultures of Sla1-GFP cells were diluted to an OD600 of 0.15 and grown in synthetic complete medium without tryptophan until they reached an OD600 of ~0.4–0.5 at 30 °C. The cells were then seeded on concanavalin A 0.05 mg/mL (Millipore Sigma) coated 8-well glass-bottom chamber slides (Sarstedt). Image acquisition was performed using a Perkin Elmer UltraVIEW confocal spinning disk unit attached to a Nikon Eclipse TE2000-U inverted microscope equipped with a Plan Apochromat DIC H 100×/1.4 oil objective (Nikon), and a Hamamatsu Orca Flash 4.0 LT + camera. Imaging was done at 25 °C in an environmental chamber. The software NIS-Elements (Nikon) was used for image capture. For each field, one brightfield and a series of fluorescence (GFP) images were taken. Cells were excited with a 488 nm laser and emission was filtered with a 530/630 nm filter. GFP time laps were acquired continuously at a rate of 1 frame/sec for 3 min.
Bright-field images were used to segment cells using YeastSpotter[60]. Cells were filtered based on circularity, solidity, and the normalized difference between minor and major axis lengths to remove poorly detected cells. Out-of-focus cells were also filtered out based on size and brightness. The centroids of the segmented cells were used to identify the locations of each cell in the image using Scikit-Image[61]. The location of each cell was used to isolate individual cell time-frames of fluorescence (GFP) images. Each cell time frame of the fluorescence images was processed through a python-based single-particle tracking tool—Trackpy[62]. Trackpy detected the locations of Sla1-GFP positive foci in each frame and linked them together to provide particle-wise trajectories. Trajectories detected in less than ten frames were considered spurious and were filtered out. Segments of the trajectories spuriously indicating movement of the particles back to the cell membrane were trimmed. The preprocessed trajectories of the particles were then used for the calculation of distances using the spatial distance module of “SciPy”[63]. The python-based code used for the analysis of microscopy images is included in the endocytosis module of “htsimaging” package.

Where [1] appears, read: Fig4H,S5G, SLA1 SH3-shuffled or -deleted strain.

B1: ABP1 E13E (protein, UniProt P15891 2-592, looked up)
Actin-binding protein: ALEPIDYTTHSREIDAEYLKIVRGSDPDTTWLIISPNAKKEYEPESTGSSFHDFLQLFDETKVQYGLARVSPPGSDVEKIIIIGWCPDSAPLKTRASFAANFAAVANNLFKGYHVQVTARDEDDLDENELLMKISNAAGARYSIQTSSKQQGKASTPPVKKSFTPSKSPAPVSKKEPVKTPSPAPAAKISSRVNDNNDDDDWNEPELKERDFDQAPLKPNQSSYKPIGKIDLQKVIAEEKAKEDPRLVQKPTAAGSKIDPSSDIANLKNESKLKRDSEFNSFLGTTKPPSMTESSLKNDDDKVIKGFRNEKSPAQLWAERKAKQNSGNAETKAEAPKPEVPEDEPEGEPDVKDLKSKFEGLAASEKEEEEMENKFAPPPKKSEPTIISPKPFSKPQEPVKAEEAEQPKTDYKKIGNPLPGMHIEADNEEEPEENDDDWDDDEDEAAQPPLPSRNVASGAPVQKEEPEQEEIAPSLPSRNSIPAPKQEEAPEQAPEEEIEEEAEEAAPQLPSRSSAAPPPPPRRATPEKKPKENPWATAEYDYDAAEDNELTFVENDKIINIEFVDDDWWLGELEKDGSKGLFPSNYVSLGN
modifications: synonymous codon change E13E
With B1, in the assay with Hua2, the “hua2sc (DMS score)” value was -0.2784 and the HUA2_MTX2 was found to be 1.334. Besides, in the assay with Lsb3, the “lsb3sc (DMS score)” value was -0.3311 and the LSB3_MTX2 stood at 1.169. For the same molecule, in the assay with Hua2 and Lsb3, the quadrant entry is reported as “Neutral”.

B2: ABP1 D14D (protein, UniProt P15891 2-592, looked up)
Actin-binding protein: B1 Actin-binding protein
modifications: synonymous codon change D14D
Turning to B2, in the assay with Hua2, the “hua2sc (DMS score)” value was 0.002961 and the HUA2_MTX2 turned out to be 1.616. In addition, in the assay with Lsb3, the “lsb3sc (DMS score)” value was -0.6602 and the LSB3_MTX2 is given as 0.8401. Moreover, the quadrant entry in the assay with Hua2 and Lsb3 is “Neutral”.

B3: ABP1 L17L (protein, UniProt P15891 2-592, looked up)
Actin-binding protein: B1 Actin-binding protein
modifications: synonymous codon change L17L in SH3
For the molecule B3, in the assay on Hua2, the “hua2sc (DMS score)” value is -0.5458 and the HUA2_MTX2 came out at 1.067. Moreover, in the assay on Lsb3, the “lsb3sc (DMS score)” value is given as -0.4377 and the LSB3_MTX2 worked out at 1.063. The quadrant result in the assay with Hua2 and Lsb3 was “Neutral”.

B4: ABP1 E16E (protein, UniProt P15891 2-592, looked up)
Actin-binding protein: B1 Actin-binding protein
modifications: synonymous codon change E16E
As to B4, in the assay with Hua2, the “hua2sc (DMS score)” value came out at 0.3666 and the HUA2_MTX2 amounted to 1.979. In the assay on Lsb3, the “lsb3sc (DMS score)” value was found to be 0.1832 and the LSB3_MTX2 turned out to be 1.684. In the assay with Hua2 and Lsb3, the quadrant result is listed as “Neutral”.

B5: ABP1 N15N (protein, UniProt P15891 2-592, looked up)
Actin-binding protein: B1 Actin-binding protein
modifications: synonymous codon change N15N
As to B5, in the assay with Hua2, the “hua2sc (DMS score)” value was -0.2193 and the HUA2_MTX2 turned out to be 1.393. In addition, in the assay with Lsb3, the “lsb3sc (DMS score)” value stood at 0.1386 and the LSB3_MTX2 stood at 1.639. In addition, the quadrant entry in the assay with Hua2 and Lsb3 is “Neutral”.

B6: Sla1 1|2|3: WT Sla1 (Sla1-GFP in imaging) (protein, UniProt P32790 1-1244, looked up)
Actin cytoskeleton-regulatory …: MTVFLGIYRAVYAYEPQTPEELAIQEDDLLYLLQKSDIDDWWTVKKRVIGSDSEEPVGLVPSTYIEEAPVLKKVRAIYDYEQVQNADEELTFHENDVFDVFDDKDADWLLVKSTVSNEFGFIPGNYVEPENGSTSKQEQAPAAAEAPAATPAAAPASAAVLPTNFLPPPQHNDRARMMQSKEDQAPDEDEEGPPPAMPARPTATTETTDATAAAVRSRTRLSYSDNDNDDEEDDYYYNSNSNNVGNHEYNTEYHSWNVTEIEGRKKKKAKLSIGNNKINFIPQKGTPHEWSIDKLVSYDNEKKHMFLEFVDPYRSLELHTGNTTTCEEIMNIIGEYKGASRDPGLREVEMASKSKKRGIVQYDFMAESQDELTIKSGDKVYILDDKKSKDWWMCQLVDSGKSGLVPAQFIEPVRDKKHTESTASGIIKSIKKNFTKSPSRSRSRSRSKSNANASWKDDELQNDVVGSAAGKRSRKSSLSSHKKNSSATKDFPNPKKSRLWVDRSGTFKVDAEFIGCAKGKIHLHKANGVKIAVAADKLSNEDLAYVEKITGFSLEKFKANDGSSSRGTDSRDSERERRRRLKEQEEKERDRRLKERELYELKKARELLDEERSRLQEKELPPIKPPRPTSTTSVPNTTSVPPAESSNNNNSSNKYDWFEFFLNCGVDVSNCQRYTINFDREQLTEDMMPDINNSMLRTLGLREGDIVRVMKHLDKKFGRENIASIPTNATGNMFSQPDGSLNVATSPETSLPQQLLPQTTSPAQTAPSTSAETDDAWTVKPASKSESNLLSKKSEFTGSMQDLLDLQPLEPKKAAASTPEPNLKDLEPVKTGGTTVPAAPVSSAPVSSAPAPLDPFKTGGNNILPLSTGFVMMPMITGGDMLPMQRTGGFVVPQTTFGMQSQVTGGILPVQKTGNGLIPISNTGGAMMPQTTFGAAATVLPLQKTGGGLIPIATTGGAQFPQTSFNVQGQQQLPTGSILPVQKTANGLISANTGVSMPTVQRTGGTMIPQTSFGVSQQLTGGAMMTQPQNTGSAMMPQTSFNAVPQITGGAMMPQTSFNALPQVTGGAMMPLQRTGGALNTFNTGGAMIPQTSFSSQAQNTGGFRPQSQFGLTLQKTGGIAPLNQNQFTGGAMNTLSTGGVLQQQQPQTMNTFNTGGVMQELQMMTTFNTGGAMQQPQMMNTFNTDGIMQQPQMMNTFNTGGAMQQPQQQALQNQPTGFGFGNGPQQSRQANIFNATASNPFGF
modifications: GFP tag in imaging
In the assay on Sla1-GFP foci (setting [1]), B6 showed a complete of 23.1408. The molecule also returned an incomplete with Sla1-GFP foci (setting [1]) of 3.31. The “mean effective distance towards centroid” value in the assay with Sla1-GFP foci (time 0) is recorded as 0; in the assay with Sla1-GFP foci (time 1), 1.1628; with Sla1-GFP foci (time 2), 1.132; in the assay with Sla1-GFP foci (time 3), 2.413; in the assay with Sla1-GFP foci (time 4), 3.293.
